Laboratory results taken from US20180155451A1 (published 2018).

T1: FcγRIIb extracellular domain with C-terminal His tag (human, UniProt P31994 43-217)
T1 construct: extracellular domain; Soluble receptor expressed in FreeStyle293 cells and used as analyte in Biacore; also called FcgRIIb; 2b; not shown: His tag at the C terminus
T1 sequence (looked up): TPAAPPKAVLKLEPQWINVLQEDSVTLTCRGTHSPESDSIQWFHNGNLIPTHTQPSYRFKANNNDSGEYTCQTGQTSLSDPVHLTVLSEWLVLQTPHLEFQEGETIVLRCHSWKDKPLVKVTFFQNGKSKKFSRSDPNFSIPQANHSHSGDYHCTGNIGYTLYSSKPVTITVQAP

B1: heterodimerized antibody GpH7-A5/GpH7-B3 variant E333_08L/GpL16-k0 (antibody, human IgG1, kappa)
heavy 1: not shown
heavy 2: not shown
light: DIVMTQSPLSLPVTPGEPASISCQASESLVHSNRNTYLHWYLQKPGQSPQLLIYKVSNRFSGVPDRFSGSGSGTDFTLKISRVEAEDVGVYYCSQNTHVPPTFGQGTKVEIERTVAAPSVFIFPPSDEQLKSGTASVVCLLNNFYPREAKVQWKVDNALQSGNSQESVTEQDSKDSTYSLSSTLTLSKADYEKHKVYACEVTHQGLSSPVTKSFNRGEC
notes: Substitution in only one H chain (GpH7-B3 side); also called He Ab
B2: heterodimerized antibody GpH7-A5/GpH7-B3 variant E333_11K/GpL16-k0 (antibody, human IgG1, kappa)
heavy 1: not shown
heavy 2: not shown
light: B1 light
notes: as for B1
B3: heterodimerized antibody GpH7-A5/GpH7-B3 variant T335_02A/GpL16-k0 (antibody, human IgG1, kappa)
heavy 1: not shown
heavy 2: not shown
light: B1 light
notes: as for B1
B4: heterodimerized antibody GpH7-A5/GpH7-B3 variant E333_12R/GpL16-k0 (antibody, human IgG1, kappa)
heavy 1: not shown
heavy 2: not shown
light: B1 light
notes: as for B1
B5: heterodimerized antibody GpH7-A5/GpH7-B3 variant T335_11K/GpL16-k0 (antibody, human IgG1, kappa)
heavy 1: not shown
heavy 2: not shown
light: B1 light
notes: as for B1
B6: heterodimerized antibody GpH7-A5/GpH7-B3 variant E333_14T/GpL16-k0 (antibody, human IgG1, kappa)
heavy 1: not shown
heavy 2: not shown
light: B1 light
notes: as for B1
B7: heterodimerized antibody GpH7-A5/GpH7-B3 variant E333_09D/GpL16-k0 (antibody, human IgG1, kappa)
heavy 1: not shown
heavy 2: not shown
light: B1 light
notes: as for B1
B8: heterodimerized antibody GpH7-A5/GpH7-B3 variant T335_06M/GpL16-k0 (antibody, human IgG1, kappa)
heavy 1: not shown
heavy 2: not shown
light: B1 light
notes: as for B1
B9: heterodimerized antibody GpH7-A5/GpH7-B3 variant E333_16H/GpL16-k0 (antibody, human IgG1, kappa)
heavy 1: not shown
heavy 2: not shown
light: B1 light
notes: as for B1
B10: heterodimerized antibody GpH7-A5/GpH7-B3 variant T335_05P/GpL16-k0 (antibody, human IgG1, kappa)
heavy 1: not shown
heavy 2: not shown
light: B1 light
notes: as for B1
B11: heterodimerized antibody GpH7-A5/GpH7-B3 variant K334_09D/GpL16-k0 (antibody, human IgG1, kappa)
heavy 1: not shown
heavy 2: not shown
light: B1 light
notes: as for B1
B12: heterodimerized antibody GpH7-A5/GpH7-B3 variant T335_01G/GpL16-k0 (antibody, human IgG1, kappa)
heavy 1: not shown
heavy 2: not shown
light: B1 light
notes: as for B1
B13: heterodimerized antibody GpH7-A5/GpH7-B3 variant I336_02A/GpL16-k0 (antibody, human IgG1, kappa)
heavy 1: not shown
heavy 2: not shown
light: B1 light
notes: as for B1
B14: heterodimerized antibody GpH7-A5/GpH7-B3 variant I336_03V/GpL16-k0 (antibody, human IgG1, kappa)
heavy 1: not shown
heavy 2: not shown
light: B1 light
notes: as for B1
B15: heterodimerized antibody GpH7-A5/GpH7-B3 variant E333_15Y/GpL16-k0 (antibody, human IgG1, kappa)
heavy 1: not shown
heavy 2: not shown
light: B1 light
notes: as for B1
B16: heterodimerized antibody GpH7-A5/GpH7-B3 variant E333_13S/GpL16-k0 (antibody, human IgG1, kappa)
heavy 1: not shown
heavy 2: not shown
light: B1 light
notes: as for B1
B17: heterodimerized antibody GpH7-A5/GpH7-B3 variant K334_01G/GpL16-k0 (antibody, human IgG1, kappa)
heavy 1: not shown
heavy 2: not shown
light: B1 light
notes: as for B1
B18: heterodimerized antibody GpH7-A5/GpH7-B3 variant T335_12R/GpL16-k0 (antibody, human IgG1, kappa)
heavy 1: not shown
heavy 2: not shown
light: B1 light
notes: as for B1
B19: heterodimerized antibody GpH7-A5/GpH7-B3 variant I336_01G/GpL16-k0 (antibody, human IgG1, kappa)
heavy 1: not shown
heavy 2: not shown
light: B1 light
notes: as for B1

These binders were tested against T1, FcγRIIb extracellular domain with … (assay: SPR Biacore, relative binding amount).

He/Con_2b	Binder
95 % of GpH7-A5/GpH7-B3/GpL16-k0 (=100)	B1
80.6 % of GpH7-A5/GpH7-B3/GpL16-k0 (=100)	B2
94 % of GpH7-A5/GpH7-B3/GpL16-k0 (=100)	B3
80.4 % of GpH7-A5/GpH7-B3/GpL16-k0 (=100)	B4
91 % of GpH7-A5/GpH7-B3/GpL16-k0 (=100)	B5
86.1 % of GpH7-A5/GpH7-B3/GpL16-k0 (=100)	B6
94.3 % of GpH7-A5/GpH7-B3/GpL16-k0 (=100)	B7
99.4 % of GpH7-A5/GpH7-B3/GpL16-k0 (=100)	B8
83.3 % of GpH7-A5/GpH7-B3/GpL16-k0 (=100)	B9
99.9 % of GpH7-A5/GpH7-B3/GpL16-k0 (=100)	B10
94.8 % of GpH7-A5/GpH7-B3/GpL16-k0 (=100)	B11
96.7 % of GpH7-A5/GpH7-B3/GpL16-k0 (=100)	B12
84.9 % of GpH7-A5/GpH7-B3/GpL16-k0 (=100)	B13
90.3 % of GpH7-A5/GpH7-B3/GpL16-k0 (=100)	B14
94.4 % of GpH7-A5/GpH7-B3/GpL16-k0 (=100)	B15
81.8 % of GpH7-A5/GpH7-B3/GpL16-k0 (=100)	B16
92.5 % of GpH7-A5/GpH7-B3/GpL16-k0 (=100)	B17
91.9 % of GpH7-A5/GpH7-B3/GpL16-k0 (=100)	B18
90.1 % of GpH7-A5/GpH7-B3/GpL16-k0 (=100)	B19

What follows are binders tested against T2, FcγRIa extracellular domain with C-terminal His tag (human, UniProt P12314 16-292) (assay: SPR Biacore, relative binding amount).
T2 construct: extracellular domain; Soluble receptor expressed in FreeStyle293 cells and used as analyte in Biacore; also called FcgRI; 1a; not shown: His tag at the C terminus
T2 sequence (P12314 16-292): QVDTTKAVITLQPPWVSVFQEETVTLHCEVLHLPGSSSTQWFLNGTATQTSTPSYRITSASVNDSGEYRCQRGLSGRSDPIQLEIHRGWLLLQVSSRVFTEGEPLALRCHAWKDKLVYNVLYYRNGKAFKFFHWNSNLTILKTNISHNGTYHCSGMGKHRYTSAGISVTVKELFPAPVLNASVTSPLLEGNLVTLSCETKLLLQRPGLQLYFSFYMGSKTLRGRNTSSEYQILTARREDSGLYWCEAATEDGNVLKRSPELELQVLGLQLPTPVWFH

He/Con_1a	Binder
102 % of GpH7-A5/GpH7-B3/GpL16-k0 (=100)	B1
102 % of GpH7-A5/GpH7-B3/GpL16-k0 (=100)	B2
103 % of GpH7-A5/GpH7-B3/GpL16-k0 (=100)	B3
102 % of GpH7-A5/GpH7-B3/GpL16-k0 (=100)	B4
111 % of GpH7-A5/GpH7-B3/GpL16-k0 (=100)	B5
102 % of GpH7-A5/GpH7-B3/GpL16-k0 (=100)	B6
104 % of GpH7-A5/GpH7-B3/GpL16-k0 (=100)	B7
107 % of GpH7-A5/GpH7-B3/GpL16-k0 (=100)	B8
101 % of GpH7-A5/GpH7-B3/GpL16-k0 (=100)	B9
106 % of GpH7-A5/GpH7-B3/GpL16-k0 (=100)	B10
106 % of GpH7-A5/GpH7-B3/GpL16-k0 (=100)	B11
104 % of GpH7-A5/GpH7-B3/GpL16-k0 (=100)	B12
106 % of GpH7-A5/GpH7-B3/GpL16-k0 (=100)	B13
105 % of GpH7-A5/GpH7-B3/GpL16-k0 (=100)	B14
101 % of GpH7-A5/GpH7-B3/GpL16-k0 (=100)	B15
103 % of GpH7-A5/GpH7-B3/GpL16-k0 (=100)	B16
104 % of GpH7-A5/GpH7-B3/GpL16-k0 (=100)	B17
113 % of GpH7-A5/GpH7-B3/GpL16-k0 (=100)	B18
109 % of GpH7-A5/GpH7-B3/GpL16-k0 (=100)	B19
